Data reported in the supplement of paper PMC9170038.

System: MS2 coat protein
Assay: apparent KD of MS2 coat protein; designed switch direction (-1 OFF switch, 1 ON switch): 1; higher = weaker reporter binding
Outline: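 Normalised cluster fluorescence was curve-fitted, and each design's median over clusters is its apparent KD. Before this, SNAP-549-labelled MS2 coat protein was titrated from 0.7 or 1.5 nM, doubling to 3 µM, over RNA switches transcribed on Illumina chips by stalled E. coli RNA polymerase. Titrations had no input, 200 uM small-molecule ligand, or an oligonucleotide input, and steps lasted 0.8–1.5 h (lowest) to 10–20 min (highest).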

[1] = input ligand: microRNA oligo, concentration not stated
[2] = Eterna round: R95, input ligand: FMN 200 uM
[3] = Eterna round: R95, input ligand: microRNA oligo, concentration not stated
[4] = Eterna round: R95, input ligand: none

| Sequence | apparent KD of MS2 coat protein (input ligand: FMN 200 uM) | apparent KD of MS2 coat protein [1] | apparent KD of MS2 coat protein (input ligand: none) | apparent KD of MS2 coat protein [2] | apparent KD of MS2 coat protein [3] | apparent KD of MS2 coat protein [4] |
| --- | --- | --- | --- | --- | --- | --- |
| GCUACAUGAGGAUCACCCAUGUGUGCGUGGGAGUGAGUGGCUUAGGAUAUCUAUGACUUUAGUUGAGAGAAGGAGGAUUGCUGU [SS-NG3-LRO11] (Eterna round: R96, puzzle: Same State NG 3) | 0.19 µM | 0.105 µM | 0.173 µM |  |  |  |
| GCUAGAAAUAAUGCCAACAUGAGGAUCACCCAUGUAUGUUGGCAGGAUAUCGUAUGCAAAGCAUACGAGAAGGGCUAAACUAGC [Mat - Same State NG 3 - JL Mod - D9] (Eterna round: R96, puzzle: Same State NG 3) | 0.217 µM | 0.19 µM | 0.231 µM |  |  |  |
| GCUAGAAUAAACGCCUACAUGAGGAUCACCCAUGUAUGUAGGCAGGAUAUCGUUUGCAAAGCAAACGAGAAGGGCCUUACUAGC [Mat - Same State NG 3 - JL Mod - D32] (Eterna round: R96, puzzle: Same State NG 3) | 0.0202 µM | 0.0222 µM | 0.0371 µM |  |  |  |
| GCUAGAAUUAAAGCCAACAUGAGGAUCACCCAUGUAUGUUGGUAGGAUAUCGUUUGCAAAGCAAACGAGAAGGGCCAAACUAGC [Mat - Same State NG 3 - JL Mod - D19] (Eterna round: R96, puzzle: Same State NG 3) | 0.0866 µM | 0.104 µM | 0.0997 µM |  |  |  |
| GCUAGAAUUAAUGCUAACAUGAGGAUCACCCAUGUAUGUUGGCAGGAUAUCGUUUGCUUUGCAAACGAGAAGGGCCAUACUAGC [JL SSNG3 1.09] (Eterna round: R96, puzzle: Same State NG 3) | 0.02 µM | 0.014 µM | 0.0263 µM |  |  |  |
| GCUCGAAUCAGAACCAACAUGAGGAUCACCCAUGUGUGUUGGUAGGAUAUCGUUUCUAAGAGAAACGAGAAGGGCCGAACGAGC [SameState NG3 #6] (Eterna round: R96, puzzle: Same State NG 3) | 0.041 µM | 0.0523 µM | 0.0757 µM |  |  |  |
| GCUCGACGUAUUGUUUACAUGAGGAUCACCCAUGUAGGUGCGAAGGAUAUCUACGUGUUUCAUGUAGAGAAGGUCGUGUCGAGC [SameState NG3 #92] (Eterna round: R96, puzzle: Same State NG 3) | 0.0193 µM | 0.0425 µM | 0.0541 µM |  |  |  |
| GCUCGACUGAUGGCCUACAUGAGGAUCACCCAUGUGAUUGGGCAGGAUAUCUAGAUGCAGGAUGUAGAGAAGGGCCGGUCGAGC [SameState NG3 #46] (Eterna round: R96, puzzle: Same State NG 3) | 0.472 µM | 0.501 µM | 0.475 µM |  |  |  |
| GCUCGAUGUGCUGUUUACAUGAGGAUCACCCAUGUAGAUGCGGAGGAUAUCUACGUGCUUUAUGUAGAGAAGGUCGUAUCGAGC [SameState NG3 #83] (Eterna round: R96, puzzle: Same State NG 3) | 0.0334 µM | 0.0412 µM | 0.0608 µM |  |  |  |
| GCUCGCACGAUGACCCACAUGAGGAUCACCCAUGUGCAUGGGCAGGAUAUCUAGAUUAAGGAUGUAGAGAAGGGUUGAGCGAGC [SameState NG3 #26] (Eterna round: R96, puzzle: Same State NG 3) | 1.58 µM | 0.193 µM | 0.533 µM |  |  |  |
| GCUCGCACGAUGACCGACAUGAGGAUCACCCAUGUGUGUCGGUAGGAUAUCUAUAUUAAGGAUUUAGAGAAGGGCCGAGCGAGC [SameState NG3 #21] (Eterna round: R96, puzzle: Same State NG 3) | 0.0571 µM | 0.104 µM | 0.117 µM |  |  |  |
| GCUCGUACGAUGACCGACAUGAGGAUCACCCAUGUGUGUCGGUAGGAUAUCUAUAUUAAGGAUUUAGAGAAGGGCCCAACGAGC [SameState NG3 #19] (Eterna round: R96, puzzle: Same State NG 3) | 0.0633 µM | 0.0665 µM | 0.082 µM |  |  |  |
| GCUGCAAGGGCAGGAUAUGGGUUCAGAGCAGAAGUGCGCUUUGAUACAUGAGGAUCACCCAUGUCCCAGAAGGGCCCAAGCGGC [Veribe] (Eterna round: R96, puzzle: Same State NG 2) | 0.0177 µM | 0.0983 µM | 0.159 µM |  |  |  |
| GGAAACAAGAGAGGAUAUGCAGAGGAUCACCCUGCAGAAGGCUCAAAAGAGAGGAUAUGCAGAGGAUCACCCUGCAGAAGGCUC [pwkr ssNG DX.27] (Eterna round: R96, puzzle: Same State NG 1) | 0.0178 µM | 0.0112 µM | 0.0214 µM |  |  |  |
| GGAAACUUGAGAGGAUAUGUAGAGGAUCACCCUACAGAAGGCUCAAAAGAGAGGAUAUGUAGAGGAUCACCCUACAGAAGGCUC [pwkr ssNG DX.11] (Eterna round: R96, puzzle: Same State NG 1) | 0.0249 µM | 0.0237 µM | 0.0331 µM |  |  |  |
| GGAAAGAGGUAAGGAUAUGCAUGGCUGGGACAUGAGGAUCACCCAUGUAAUAGAAGAAAUCUAGGGUAGAAGGUACAAGGAAGG [AK SSNG2-V2-9] (Eterna round: R96, puzzle: Same State NG 2) | 1.11 µM | 0.367 µM | 0.45 µM |  |  |  |
| GGAAGGAGGUCAGGAUAUGGAUGGAAGGUACAUGAGGAUCACCCAUGUUACGGAGGAAGGAAACGUUAGAAGGGAUAAGGAAGG [AK SSNG2-V2-2.1] (Eterna round: R96, puzzle: Same State NG 2) | 0.0347 µM | 0.0249 µM | 0.0318 µM |  |  |  |
| GGAAUAUUUACAGGAUAUCAUUUGUAAAUUCGAUGAGAAGGGUAGAUGUCUUACACGACGUGUUACAUGAGGAUCACCCAUGUU [SameState NG1 #7] (Eterna round: R96, puzzle: Same State NG 1) | 0.146 µM | 0.142 µM | 0.145 µM |  |  |  |
| GGAGACAGAGCAGGAUAUGCUCCGAGUAACGAAGCAGAAGGGUUCGUAAAUCGUCGACAUGAGGAUCACCCAUGUGACCUAGUA [Eternabot solution 18] (Eterna round: R96, puzzle: Same State NG 1) | 0.0207 µM | 0.0184 µM | 0.0247 µM |  |  |  |
| GGAGCCGGCACCGAGGAUAUUCAUAUUAAAACAUGAGGAUCACCCAUGUAGGCCAGAAGGCCUUGGGAGAAGGCGGACCGGCUCG [Xeonanis - 4] (Eterna round: R96, puzzle: Same State 2) | 0.0274 µM | 0.165 µM | 0.287 µM |  |  |  |
| GGAGCCGGCACCGAGGAUAUUCAUAUUAAAACAUGAGGAUCACCCAUGUAGGCCAGAAGGCCUUGGGAGAAGGCGGACCGGCUCG [Xeonanis - 4] (puzzle: Same State 2) |  |  |  | 0.024 µM | 0.52 µM | 0.664 µM |
| GGAGCCGGCACUGAGGAUAUUCAUAGUGUAACAUGAGGAUCACCCAUGUAGGCCCUGAGGCCUUGGGAGAAGGCAGGUCGGCUCG [JL-ss2-3.04 ViennaUCT mod] (puzzle: Same State 2) |  |  |  | 0.0318 µM | 0.239 µM | 0.445 µM |
